We go through nine molecules from patent US20250241939A1, “NUCLEIC ACID-BASED DELIVERY SYSTEMS AND USES THEREOF” (Kodikaz Therapeutic Solutions, Inc., priority 2022, published 2025).

To fix the notation:
B1: 49 (nucleic acid, listed as Homo sapiens)
chain: CTTTAACCTCCTTGTTACGTTTGTCTCTTCCAGAATCGAAGCTGTAAAACTACAAATGGTTCTTCAAATGGAGCCCCAGATGCAGTCCATGACTAAGATCTACCGCGGACCCCTGGACTGGCCTGCTAGCCCATGCTCCAATGTTGATGACATTGAAGGCACCCCTCCCAAGGAAATCTCAACTGCACGACCCCTACTATGCCCCAATTCAGCATGAAGCAGTTAAGAGCGGTTGTCAGCCAACCTCCCCAACAGCACTTGGGTTTTCCTGTTGAGAGGTGGGACTGAGAGA
B2: 26 (nucleic acid, listed as Homo sapiens)
chain: AATTACAACAACCCTTAATATTTGTAAAGCGCTTGATAATTCAGGGAGGGCTTTTAAAAACTTCTATCCATCTCTTCCCCCCAGCAATCCTATGAGGTAGGCAGGGCTGGAATCATTTGCTGCATTTTATCGAATAGGAAGCCATGACTCGTAGAGGTCTGGTGACTTAACTGAGGTCACCCACTGAGGACGTGGCAGAGCTGGGTCCTGAATCTGTGGCCCTCAGGCTCTTTGCCTGGCCCTGCCTCACATAGACTACGCTGCCTCT
B3: 67 (nucleic acid, listed as Homo sapiens)
chain: CCTTAATAGTTAATCTCCTATTAATAAGTAAGTGATTCTTTAATTAAACTTTCCTCATTCAAATGGCCATATGCTTTCTGTCTCTCGACTAGATGCTGAGTGATATACCCCCCA
modifications: listed as DNA, chemistry not fully specified
B4: 52 (nucleic acid, listed as Homo sapiens)
chain: TCATCTCACAGAGTTAAACCTTTCTTTTGATTGAGCAGTTTTGAAACTCTCTTTTTGTAGAATCTACAAGTGGACATTGGGAGCTCTTTGAGGCCTATGTTAGAAAAGGAAATATCTTCACATAAAACCTAGATAGAGGCAATCTGAGAAACATCTTTGTGATGTGTGCATTCATCTCACGGAGTTAAACCTTTCTTTTCGTTGAGCAGTTTTTAAACTGTCTTTTTGTAGAATGTGCAAGTGGACATTTGGAGCGCTTTTTGTCCTATGGTGGGAAAGGAAGTATCTTCACATAAAAACTAGACCGAAGAATTCTGAGAAACTTCTTTGTGACGTGTACGTTCATCTCACTGAGTTGAACCTTTCTTTTGATTGAGCAGTTTGGAAACACTCTTTTTGTAGAATCTGCAAGTAGACATTTGGAGCGCTTTTCAGCCTACGGTAGAAAAGGAAATATCTTCACATCACAAAGAGAGAGTTTCAAAACTGCTCTATCAAAAGAAAGGTTTAACCCTGTGCGATGAATGCACATATCACAAAGAAGTTTCTCAGATTGCTTCTGTCTAGATTTTATGTGAAGATATTCCTTTTTCCACCATAGGCCTCAAAGCGCTCCAAATGTCCACTTGCAGATTCTACAAAAAGAGTGCTTCCAAACTGCTCGATGAAAAAAATGGTTCAACTCTGTGAGATGAATGCACGCATCACAAAGAAGTTTCTCAGAATTTTTCTATCTAGTATTTATTTGAAGATATTTCATTTTCCACCAT
B5: 58 (nucleic acid, listed as Homo sapiens)
chain: TAGATGGAGGGGGAAAAACAGGGTGGGGAGCGGGAGGGAGGGAAGGTTTTGCAGAAAGACGGCGGTTAAAAAGTTTATGGGTAGATGGAGGGGGAAAAGAGGGTGGCAAGTGGGAGGAGGAAAGAGGGTGATAAGGGGGGGAAGTGGGGGTGAGCAGTAGGGAGAGAAGGTTTTGTGAAAAAAATGGGGAGAAAGGTTTTGGTTAGACGGGAGAAAAGAGGGTAACAAGTTGGGGAAGGAAAAAGAGGGTAGCTAGGAAGAAGACAAGGTTTTGCGAAAAGATAGCGGCCAGAAAAGAAAGACGGTGGAGAAAGGAAAGACGGTGGGTAAAAAGTGGGTAGATGGAGTGGGGAAAGAGGGT
B6: 55 (nucleic acid, listed as Homo sapiens)
chain: GCGGTGGCTCACGCTTGTAATCCCAGCACTTTGGGAGGCCGAGGTGGGCGGATCACGAGGTCAGGAGATCAAGACCACGGTGAAACCCCATCTCTACTAAAAATATAAAAAATTAGCCGGGCGTGGTGGTGGGCGCCTGTAATCCCAGCTACTCAGAGAGGCTGAGGCAGGAGAAGGGCGTGAACCCGGGAGGCGGAGCTTGTAGTGAGCTGAGATCGCGCCACTGCACTCCAGCACCCCAGCCTGGGTGACAGAGCGAGACTCCGTCTCAAAAAAATAATAATAATAATTAAATAAATAA
B7: 60 (nucleic acid, listed as Homo sapiens)
chain: ATTCAGAAGACAAATCTCACATGCAAAGACACACATAGGCTCAAAATAAGTGGATGGAGGAATATTTACCAAGCAAATGGCAAGCAAAAAGAAAAAGCAGGGGTTGCAATCCTAGTATCTGATAAAACAGGCTTTAAACCAAGAAAGATCAAAAAAGACAAAGAAGGTCATTACATAATGGTAAAGGGATCAATGCAACAAGAAGAGCTAACTATCCTAAATATATACGCACCCAATACAGGAGCACCCAGATTCATAAAGTAAATTCTTAGAGACTACAAAGAGACTTATACTCCCATACAATAATAGTGGGAGATTTTAACACCTCATTGTTGATATTAGATCAATGAGACAGAAAATTAACAAGGATATTCAGGACTTGAACTCAGCACTGGACAAAGCAGATTTAATAGACATCTACAGAACTCTCTACCTCAGATCAACAGAATATACATTCTTCTCAGCACCACATAGCACTTATTCTAAAATTGACCACATAATTGGAAGTAAAACACTCCTCAACGAATGCAAAAGAATGGAAATCATAACAAACAGTCTCTCAGACCACAGTGCAATCAAATTAGAACTCAGGATTACGAAACTTACTCAAAACTGCACAACTACATGGAAACTGAACAACCTGCTCCTGAACGACTACTGGGTAAATAATGAAATGAAGGCAGAAATAAATAAGTTTTTGAAACCAATGAGAACAAAGACACAACATACCAGAATCTCTGGGACACAGCTAAAACAGTG
B8: 50 (nucleic acid, listed as Homo sapiens)
chain: CAGTCTTTCAGGACCAGAAGAGATGGATTTTAGGTTTTCCTTCCACTCAATGTATTCTATATGTACCCTAATCAACAAACATGCCTGGTTGTCACAGGTAGAAGGGGTCTCTACTCTGAATCATTCAGAGAAGAAATAATCATATTCTTTCGATGCTATCACTAACACAGGACCGTGATCCGAGACAACCAGGTTCAGTTCTTGATATGTAAAGGAATTTGGGAAAATATCATCTCTCACCACAAAATCTGTATTTTTATGTATATTTAAGCAAAATCCTGTTTTGGTCATCATTTTCTTTACCTTTCTTCTATATCCATCCTAATCTCCCTTTCAGC
B9: 61 (nucleic acid, listed as Homo sapiens)
chain: TATTTTTAAGCAAAGACTTAGAGAGAGAGAGGAAGTTAGCTATGCACATTGTGGGTGCGGTGTGGTTAGGGTGGCCCTGAGATAGGGATATGCCTGGTGTGTTTACGGAACAGCTAAGAGGCCAGGGAACTAGAGGAAATTGAGTGGGAAGGAGAAGAGTAGGAGATTAGTTTTGAAAAGCAAATGGTTTGGGAATATGGATCATGTAAGAGCACATGAGATTTTATAAGGATTTCATTTTACTCAGGGTGAAATGAAGAAGCACTAAAA

One data set concerns MIA (pancreatic cancer) cell genome. The data set is described as follows: ctDNA coculture with MIA cells, whole genome sequencing: genomic insertion sites, transposons at insertion points and SNVs (pancreatic cancer). Particulars: TABLE 4; gene at identified genomic insertion site. It is filed as cell-based, human. Here is the method:
The integration of ctDNAs into the host cell genome was evaluated. ctDNA was extracted from patient plasma, cultured for 24 hours with cells of a matching cancer cell type or non-matching cancer cell type, and whole genome sequencing was performed. The cell lines used were MM1s (multiple myeloma, MM) and MIA (pancreatic cancer, PC).
The sequence data was used to reconstruct genomic contigs for each experimental condition by de novo assembly. […] Coculture contigs carrying a ctDNA insertion were identified using NucDiff analysis.
Experiments were designed to identify the presence of transposons in ctDNA fragments. To map ctDNA genomic junctions more precisely, a PACBIO probe was ligated to multiple myeloma and pancreatic cancer ctDNA samples to label their 5′ and 3′ ends. Whole-genome sequencing of DNA from cells with ctDNA genomic integration was done using the Illumina platform. De novo assembly was performed on the sequencing output. ctDNA contigs containing PACBIO adaptor were then matched to those contigs containing inserted ctDNA sequences identified in the coculture experiments. Transposable element on ctDNA sequences at the insertion points (<100 nucleotides from transition point between cell and ctDNA) were detected and classified using RepeatMaster.
A search was conducted for transposons that preferentially target cells of matching tumor types. The lists of transposons identified at the ctDNA insertion point in matching and mismatched coculture conditions were compared (e.g., MM ctDNA with MM cells or PC cells). Transposons were selected that were uniquely or preferentially inserted in the matching conditions.
Whole-genome sequencing and Whole exon sequencing: ctDNA was extracted from 10 MM and 10 PC patients. DNA from CD138 (+) cells and from cell lines used in in vitro experiments (MM1s and MIA) was extracted using Blood & Cell Culture DNA Mini Kit (Quiagen, MD). DNA from […] paraffin embedded pancreatic tumors was obtained using QIAamp DNA FFPE Tissue Kit Print (Qiagen, MD).
After extraction, ctDNA was ligated to the PACBIO adaptor ([…]) using the ABM DNA Library Prep Kit for Illumina Sequencing (Applied Biological Materials Inc. Canada). PACBio-labeled ctDNA and regular ctDNA were subjected to standard methods for library preparation and sequencing using Illumina and Agilent protocols, respectively. Applied Biological Materials Inc. prepared the libraries and performed whole-exon and -genome sequencing.
Identification of transposable elements and its nucleotide variants: To determine the locations of transposable-like regions in contigs, sequences were analyzed and transposable elements (TEs) were identified and classified using RepeatMasker version 4.1.0 and the Dfam database (release 3.1) of repetitive DNA families was used as a reference for identifying repeats in ctDNA contig sequences that were part of qualifying structural events. For each repeat sequence identified by RepeatMasker, the overall frequency of the specific repeat (e.g., for AluSp or L1) and their parent class (e.g., SINE) was computed.
Once the TE elements were identified, hit repeats/TE sequences, unique contigs for all samples, and insertion sequence were aligned with MAFFT software version. Mutations in TE sequences were identified by comparison of nucleotides at each position in the multiple sequence alignment with the “Biostrings” R package (version 4.1). A position was considered to contain mutation if the substitution was present in contigs of all samples.
For B1, the Gene result was “AIG1”.

For the molecule B2, the Gene result is “PPAC”.

Still in this data set, the particulars now being: TABLE 4; identified genomic insertion site, chromosome.
For B3, the Location result is reported as “Chr 19”.

In the case of B1, the Location entry was “Chr 6”.

Consider B4, for which the Location entry is “Chr 7”.

For B5, the Location entry is on record as “Chr 13”.

Consider B6, for which the Location entry is recorded as “Chr 14”.

B7: the Location result is given as “Chr 4”.

B8: the Location result is reported as “Chr 7”.

Consider B9, for which the Location entry is reported as “Chr 14”.

For the molecule B2, the Location result is recorded as “Chr16”.

The data set is the same for the next values; noted with them: TABLE 4; number of single nucleotide variants (SNVs or SNPs) identified; polynucleotides for pancreatic cancer cells.
In the case of B3, the “No. SNP” value came out at 1.

Regarding B1, the “No. SNP” value was found to be 5.

Turning to B4, the “No. SNP” value amounted to 55.

Take B5: the “No. SNP” value worked out at 1.

Regarding B6, the “No. SNP” value is recorded as 1.

As to B7, the “No. SNP” value stood at 1.

For B8, the “No. SNP” value was found to be 3.

For the molecule B9, the “No. SNP” value is on record as 1.

With B2, the “No. SNP” value came to 0.

Staying with this data set, now noted: TABLE 4; position on the chromosome of the identified genomic insertion site.
B3 had a Chr location of 40372997.

On to B1, for which the Chr location is listed as 143409567.

With B4, the Chr location was determined as 57988111.

Turning to B5, the Chr location was determined as 19693028.

Regarding B6, the Chr location was determined as 103067410.

Turning to B7, the Chr location came out at 36939485.

With B8, the Chr location is 18828526.

B9 had a Chr location of 21413450.
